Measurements from PMC2291188 (The Journal of Cell Biology, 1995).
Several values for one entry are separate records, joined by “and”; a condition that tells them apart may be missing. Equal values may be shown once.

Biological target: T1, proPC2 (proform of the prohormone convertase PC2) (UniProt P28841 25-637)
T1 sequence (looked up): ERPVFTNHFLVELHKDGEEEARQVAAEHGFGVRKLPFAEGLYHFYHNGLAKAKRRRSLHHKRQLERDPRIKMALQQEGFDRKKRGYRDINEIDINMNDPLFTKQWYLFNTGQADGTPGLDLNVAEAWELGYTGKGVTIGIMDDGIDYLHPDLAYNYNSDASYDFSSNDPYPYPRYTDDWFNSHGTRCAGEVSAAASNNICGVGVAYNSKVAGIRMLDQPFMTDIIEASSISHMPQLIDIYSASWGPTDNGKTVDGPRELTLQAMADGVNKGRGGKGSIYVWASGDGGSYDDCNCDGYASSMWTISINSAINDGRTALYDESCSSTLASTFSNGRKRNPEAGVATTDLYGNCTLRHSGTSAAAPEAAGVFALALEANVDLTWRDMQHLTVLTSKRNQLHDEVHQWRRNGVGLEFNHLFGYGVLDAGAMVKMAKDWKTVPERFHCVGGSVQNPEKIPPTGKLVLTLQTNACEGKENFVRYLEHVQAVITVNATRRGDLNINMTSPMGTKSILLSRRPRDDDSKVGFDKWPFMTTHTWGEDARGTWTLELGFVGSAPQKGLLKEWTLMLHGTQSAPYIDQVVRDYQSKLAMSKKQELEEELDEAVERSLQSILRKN
Experiment: co-IP

B1: 27 kD 7B2 (rat) (natural protein, UniProt P27682 25-210, looked up)
chain: YSPRTPDRVSETDIQRLLHGVMEQLGIARPRVEYPAHQAMNLVGPQSIEGGAHEGLQHLGPFGNIPNIVAELTGDNIPKDFSEDQGYPDPPNPCPLGKTADDGCLENAPDTAEFSREFQLDQHLFDPEHDYPGLGKWNKKLLYEKMKGGQRRKRRSVNPYLQGKRLDNVVAKKSVPHFSEEEKEPE
stoichiometry N: 1.12 mol 7B2 per mol PC2 (molar ratio, Clone#1) and 1.09 mol 7B2 per mol PC2 (molar ratio, Clone#2)
